Source: a protein production outcome set (Wang et al. 2014)

Test: label from the status in PepcDB records
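Note: failed if final PepcDB status was selected cloned or expressed and not failed if soluble or beyond.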

MQECTNVQVSKMMLSAPQHLVGGSVSEITPNRDLSLDSMHTSQVKQNIRALWTALVLLSVFFCIELSAGIWSHSLSLLADAEHILSDVAALGLALIASWLSQSISQRTIFGRYKLEVLAALINGISLACIACWIVREALVRLQSPTTEILGVPMLTTALIGVGVNSFNALCLHKCSHKDLNIRGALLHLIADLASSVGAVLAAIAIIWLNWTWADGVISLVVAMLIASFAAYLLIQSVQCLRGQIADISDIACMCPPQSEVCVDRQQAEKLLFPTLEELVQ
protein production: failed

MQEELAWETDGLLPLERQLHEAARQNNVGRMQELIGRRVNTRARNHVGRVALHWAAGAGHEQAVRLLLEHEAAVDEEDAVGALTEARLCFGMNALLLSAWFGHLRILQILVNSGAKIHCESKDGLTLLHCAAQKGHVPVLAFIMEDLEDVALDHVDKLGRTAFHRAAEHGQLDALDFLVGSGCDHNVKDKEGNTALHLAAGRGHMAVLQRLVDIGLDLEEQNAEGLTALHSAAGGSHPDCVQLLLRAGSTVNALTQKNLSCLHYAALSGSEDVSRVLIHAGGCANVVDHQGASPLHLAVRHNFPALVRLLINSDSDVNAVDNRQQTPLHLAAEHAWQDIADMLLIAGVDLNLRDKQGKTALAVAVRSNHVSLVDMIIKADRFYRWEKDHPSDPSGKSLSFKQDHRQETQQLRSVLWRLASRYLQPREWKKLAYSWEFTEAHVDAIEQQWTGTRSYQEHGHRMLLIWLHGVATAGENPSKALFEGLVAIGRRDLAGWSTMARSQLTATSASRVQMILVPQPPE
protein production: failed

MQEESHIEEVEIQNKLEVAPALISVHPSQKSVAVAVGSDLRIFDLIENCPVSLVDESDGPIRKESIRAIRYSTSGKLFVSAGDDKLVKIWSADSWRCLNTVCSEKRVSAVAISSDDSHVCYADKFGVVWVIELDGINDGKTLPSKKGALLLSHYCSIITSLEFSPDGRYILSADRDFKIRVTVFPKKPLEGAHEIQSFCLGHSEFITCTAFVSTPELTQGYLMSGSGDSTVRLWDITSGSLLDTCEVSTVAGHAESNENESPTQVTVTDICAIPNSSLAAVAIQSFQGIFLLSCDLTAHTLSITKVIKIPGESFIPTSIAVSASSRLLWMVSGASNLPGSNHPGFSRVRVISCLETESSSILEDEQIPGGTKLLEQLQGKVTIEESVMSAAAEAVRAAMSSLLMKKQYSEEKREFRKRTRNDKKTTR
protein production: failed

MQEGNFKAGTYSAARQGIGGDVTVTLDIDAQGKVLKSTIDALEETPEVGGEAAIELAKTMTEKQSIQVDGVSGATMTSGAVHEAAEDAYSQAKANLEHHHHHH
protein production: not failed

MQEIEIFCDGSSLGNPGPGGYAAILRYKDKEKTISGGEEFTTNNRMELRALNEALKILKRPCRITLYSDSQYVCQAINVWLANWQKKNFSKVKNVDLWKEFLEVSKGHSIVAVWIKGHNGHAENERCDSLAKLEAQKRVKTTT
protein production: failed

MQESVVRVDYDSLETCKNFKPSVGTELIVLEKDIAHARFKGNESMVYEENFVHAGFVLIACNYAALCALNKRHSVVVSNNINFYAPLELNQEALIKAQVIQDGVKKAEIKIEAFVLDIQVLEGMIEIVVFDKKPFKFNFKEELEHHHHHH
protein production: failed

MQETDSGAGPRTLRRGLMVLAALRDQGPRGLSVTDIARQTGIQRPTIYRLLAALLDAGLVVPLQGTKKYRTQLAADADLAAPNPRVRQMLPVLRRLADRTGDAVFLVVRDGDDSVSLHREIGSYPVQILATYAGKRQPLGVGSGSMALLAALPDEVAHAIVQRNSGRLDEYGGMTPQEMHRLIENTRARGYSVVGNHAVRGALGVGCALLDAQGAPVLAVSVTAIIDRMPAQRQREIAGWIGAELARLAPKA
protein production: failed

MQFFGGSEISPSPPVPTASGNNAHMMYVFNRNGVCLLYKEWNRPLHTLNPQQDHKLMFGLLFSLKSLTAKMDPVNADKGNLGVPQLPGQGCSFHSFRTNTYKLSFMETPSGIKIILVTHPKTGDLRESLKYIYSLYVEYVVKNPIYSPGSPIKSELFNTALDQYVRSIS
protein production: failed

MQFGIFTVGDVTPDPTTGRTPTEHERIKAMTTIAKHAEDVGLDVFATGEHHNPPFVPSSPTTMLGYLAAQTEKIILSTSTTLITTNDPVKIAEDYAMLQHLADGRVDLMMGRGNTAPVYPWFGQDIRQGIPLALEHYRLLRRLWDEDVVDWQGQFRTPLQGFTSTPRPLDGIAPFVWHGSIRSPEIAEIAAFHGDGFFANNIFWPKEHYIALINLYRERYEHYGHGRADQAIVGLGGQVFMRRNAKDAVDEFRPYFDNAPVYGHGPSLEDFTEQTPLTVGTPEQVIEKTLTFADFFGDYQRQLFLVDHAGLPLKTVLEQLDLLGGEVVPVLRKEFAARR
protein production: failed

MQFIKNLQLNKKKDSDSSEQVLTNKKNKMKYEDFNFIRTLGTGSFGRVILATYKNGNYPPVAIKRFEKCKIIRQKQVDHVFSERKILNYINHPFCVNLHGSFKDDSYLYLVLEFVIGGEFFTFLRRNKRFPNDVGCFYAAQIVLIFEYLQSLNIVYRDLKPENLLLDKDGFIKMTDFGFAKIVETRTYTLCGTPEYIAPEILLNVGHGKAADWWTLGIFIYEILVGCPPFYANEPLLIYQKILEGIIYFPKFLDNNCKHLMKKLLSHDLTKRYGNLKKGAQNVKEHPWFSNIDWVNLLNKNVEVPYKPKYKNIFDSSNFERVQEDLTIADKITNENDPFYDW
protein production: failed

MQFIPPILCKMNGRRQLNMHQQTKRLITISMLSAVAFILMFIKFPIPFLPPYLTLDFGDVPALLATFILGPVAGLIVEFIKNLLNFLFNIGDPVGPVANFLAASSFLLTAYFVTKYKDKIKSQIVGLSIATVVMTIVLSILNYFVLLPLYGMIMNLSDVVENVKIVIVSGVIPFNIIKGIVISIIFILLYNRLKNVLPK
protein production: failed

MQFIVSKKEFIPPVIAPDIIETLGDDYEIWTYEDYERLPPLLVGVYSYSAIPKCLAPLSTQGLVKSGVFRLQREFVPGLYGNGVYVVVIDTGVNYAQEAFMTPEGKTKIAVLWDQNTDTVYSEDEINAAILSENPYESIPGDEDGHGTFVASVICGNDRPQDDFAGVAPQAKLIVVKLKRAPQKLYDFYFIPDRKMVYSEVDVMRAVHFADEFAGQKGAPAVFCMALGCNNGSHTGAEDLSEYLDYITAKRGRAVVAAAGNEANSRHHYKGRITDTVDDIEINVEQDMDGFYLECWALSPELFTLSVISPSGQSNPAGVPMRIDSGEYSFLLEGTQVTIDYRQTGRQTRDLLIFIRFEKVVKGVWTIRVFPLSTIGGVFNMWLPMTGLLDADVSFIVSEPDTTLTMPSDAKLVITAGGYNSLNDAILLESGRGFDADGGIKPDLVAPAVDITGANLRGMYIALSGTSAAAAITAAVAALIMEWMIVRGNVLLANGVDIKNVMVRNCRRKEKTDYPNKIFGYGFMNGFANF
protein production: failed

MQFQDVRLMRVVVCRRLGPAKGQRRWHPLDLGTTGCFENLGAQRPTYRMRAIRMLECAMPNRLVRSLQRWRPFGLPPHRWRLAPWYWRGLQVTLEPGSAIAWIVRLTGGFEETEIDIAAALYSALYPDRCILDVGANVGIHSLAWARLAPVVALEPAPGTHSRLEANVAANGLQDRIRTLRTAAGDAVGEVDFFVAADSAFSSLNDTGRIRIRERTRVPCTTLDALAAELPLPVGLLKIDVEGLERAVIAGAAELLRRDRPVLLVEIYGGAASNPDPERTIADIRAYGYEPFVYADDAGLQPYQRHRDDRYCYFFIPSRKG
protein production: failed

MQGGMMKQLVVAGFFLLLLTSPLSALDVDTYRSSQKQFNTEDKAEQGDAQAQFELGLKYEKGDGVNKDLKKAIYWYQKAADQGQAEAQNNLGVLYLKGEGVPQNSQQAMYWFKKASEQGLAIGQNNIGILYENGLGVKKDPGQAFIWYQKAAEGGNSDGQYNLAVMYMYGNGIPKDIKKAIHWYIKAAEQGDLDAQNNLGVLYERGEEVPRDLKAAISWYTRAANEGSLIAQTNLGVLYMTGDPSIQDGKKAIYWYEKAAAQGGEKAQNNLGYIYEQGIGTEKDMKKAIYWYEKAAENGFTLAQNNLGVLYSNDGELQDYKKAYLWFKKAADQGFAEAQNNLGLMYMKGNGLSVNYHEAVLWYKRAAEQGLPLAQHNLAIMYMKGLGIKKDNKLAIKWYQKAAEKGLDLAQNNLAVMYIRGEGVKRDFKKAMYWYQKAAEQGLDLAQINLGIMYLDGMGVNKDFAKAKYWIGKAKDSGSQDALTIWNKNKLWKYQ
protein production: failed

MQGIGEGVRRAFPIVLGYVPVGFAFGVLALKSGIPAWGALAMSLFVFAGSGQLIAVGLIGGGAPLASVVLTTFVVNLRHLLMSAALAPRLRDWGLLRQALFSAEMTDETFAVHVSTLRGEADDPSRAAVFACNVTAHAAWVGGSALGVFCSTLVADVRPLGLDYALAAMFIALLLPQCRSRAHLFAALVAGACSVGFALSGAGRWNVMLATVCAATLVSLLPVGKTSTTREEMGTPGGEGGAHAD
protein production: failed

MQGIKNLTHGPINRQLFNLAMPIMATSFIQMAYSLTDMAWVGRLGSEAVAAIGSVGILTWMSGSISLLNKVGSEVSVGQSIGAQNQEDARQFASHNITIALIISICWGGLLFMFASPIIRIYELEEHITANAIEYLRIISTALPFIFLSAAFTGIYNAAGRSKIPFYISGTGLIMNIILDPLFIFGFGLGTNGAAYATWLSQATVFAIFIYQLRFRKDALLGGFPFFSRLKKKYTRRILKLGLPVATLNTLFAFVNMFLCRTASEQGGHIGLMTFTTGGQIEAITWNTSQGFSTALSAFIAQNFAAGRIERVLKAWHTTLWMTGIFGTFCTLLFVFYGNEVFSIFVPEQAAYEAGGVFLRIDGYSQLFMMLEITMQGVFYGIGRTVPPAIVSIVCNYMRIPLAILFVRMGMGVEGIWWAVCVTTIAKGLILLGWFTMIRKKCLNLPSVSTR
protein production: failed

MQGIPLGSEYFEKLDPYFLVCIAKEYLLFCPKQPRLPGQIVSPLLKQVAVILNPVVKAAPALIDPLYLMAQVRYYSGELENAQSILQRCLELDPASVDAHLLMCQIYLAQGNFGMCFHCLELGVSHNFQVRDHPLYHLIKARALNKAGDYPEAIKTLKMVIKLPALKKEEGRKFLRPSVQPSQRASILLELVEALRLNGELHEATKVMQDTINEFGGTPEENRITIANVDLVLSKGNVDVALNMLRNILPKQSCYMEAREKMANIYLQTLRDRRLYIRCYRELCEHLPGPHTSLLLGDALMSILEPEKALEVYDEAYRQNPHDASLASRIGHAYVKAHQYTEAIEYYEAAQKINGQDFLCCDLGKLLLKLKKVNKAEKVLKQALEHDIVQDIPSMMNDVKCLLLLAKVYKSHKKEAVIETLNKALDLQSRILKRVPLEQPEMIPSQKQLAASICIQFAEHYLAEKEYDKAVQSYKDVFSYLPTDNKVMLELAQLYLLQGHLDLCEQHCAILLQTEQNHETASVLMADLMFRKQKHEAAINLYHQVLEKAPDNFLVLHKLIDLLRRSGKLEDIPAFFELAKKVSSRVPLEPGFNYCRGIYCWHIGQPNEALKFLNKARKDSTWGQSAIYHMVQICLNPDNEVVGGEAFENQGAESNYMEKKELEQQGVSTAEKLLREFYPHSDSSQTQLRLLQGLCRLATREKANMEAALGSFIQIAQAEKDSVPALPALAQAYVFLKQIPKARMQLKRLAKTPWVLSEAEDLEKSWLLLADIYCQGSKFDLALELLRRCVQYNKSCYKAYEYMGFIMEKEQSYKDAVTNYKLAWKYSHHANPAIGFKLAFNYLKDKKFVEAIEICNDVLREHPDYPKIREEILEKARKSLRP
protein production: failed

MQHGPVVRRRKLGAELRALRTSAGITSGEAARLVGWHQSKVSRIETGTSGAKPADVRLLLDAYGVTDEQLRGLLVMLAHSEDAGGRNHWWHAYRGVLPPTYRDFISLESQAAAMRTLETTVVPGLLQTPEYARAVTRAAVDGMPAERLDTLVEVRLARQDVLRGEPPLELSAVLDEAVLRRVVGGPGVMSRQLTRLVEAAQLPHVRIQVLPFAAGAHIGVTGPFVIFSFSSTSDLDVVVLDHLTSSLHLERKEDLEAYTEAFNALLIHALSPEDSLDFIAATAAGA
protein production: failed
